The results in this text go back to the supplement of paper PMC11780869.

This series has as its system Bacillus subtilis. Put plainly: cleaved RNA product abundance (RNA/gDNA barcode ratio) relative to median wild-type variant (ratio to wild type); higher = more accumulation of the downstream cleavage product. The procedure, abridged:
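B. subtilis strains with chromosomally integrated reporter mRNAs (truncated aprE or tetM) holding barcoded, mutagenized RNase Y cleavage-site windows grew in LB at 37°C from OD600 0.0003 to 0.3. Cleaved product abundance is each construct's RNA:gDNA barcode ratio, scaled to the median construct with the unmutated site. It came from sequencing barcodes of gel-selected, reverse-transcribed cleaved RNA and of genomic DNA.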

Where [1] appears, read: experiment (reporter, strain, medium): exp 4a: truncated aprE reporter, strain BJT201 with 2% xylose (RNase J1 expressed), cleavage site: cggR-gapA (positions -7 to +36 mutated).
Setting [2] is: experiment (reporter, strain, medium): exp 2b: truncated aprE reporter, strain BJT200, cleavage site: cggR-gapA (positions -7 to +36 mutated).
The mark [3] stands for this setting: experiment (reporter, strain, medium): exp 8a: truncated aprE reporter, strain BJT201 with 2% xylose (RNase J1 expressed), cleavage site: glnRA (positions -5 to +31 mutated).

In the case of “ACAGACGAAGGAGCCGCAAAGAAGTTTTTAAGGCATGAATAATCCCTCAATATAAATATCTCTCACTTATTTAAA”, the “cleaved RNA product abundance” value under setting [1] came out at 0.119.

For the sequence “ACAGACGAAGGAGCCGCAAAGAAGTGATTAAGGGATGAATAATCCCTAAATATAAATATCTCTCACTTATTTAAA”, the “cleaved RNA product abundance” value under setting [1] was 0.388.

As to “ACAGACGAAGGAGCCGCAAAGAACTTATCAAGGGATGAATAATCCCTCAATATAAATATCTCTCACTTATTTAAA”, the “cleaved RNA product abundance” value under setting [1] worked out at 0.32.

Turning to “ACAGACGAAGGAGCCGCAAAGAAGTTATTAAGGGATGAATAACCTCTCAATATAAATATCTCTCACTTATTTAAA”, the “cleaved RNA product abundance” value under setting [1] was found to be 0.151.

For “ACAGACGAAGGAGCCGCAAAGAAGTTATTAAGGGATAAATAATGCCTCAATATAAATATCTCTCACTTATTTAAA”, the “cleaved RNA product abundance” value under setting [1] stood at 0.0991.

Take “ACAGACGAAGGAGCCGCAAAGAAGTTATTAAGGGATGAATAATCACTCAAGATAAATATCTCTCACTTATTTAAA”: under setting [2], the “cleaved RNA product abundance” value worked out at 0.0892.

Turning to “ACAGACGAAGGAGCCGCAAAGAACTTATTAAGGGATCAATAATCCCTCAATATAAATATCTCTCACTTATTTAAA”, the “cleaved RNA product abundance” value runs as follows: under setting [2], 0.282; under setting [1], 0.27.

With “CGACATGTCCCGCTTCTTTCATTAATCCGTTAGCAACTGTGTTGCTATATACATTTACCATTTAAGAGGAGGAAT”, the “cleaved RNA product abundance” value under setting [3] was determined as 0.38.

In the case of “ACAGACGAAGGAGCCGCAAAGAAATTATTAAGGGATGAATAATCCCTCAATATAAATAGCTCTCACTTATTTAAA”, under setting [1], the “cleaved RNA product abundance” value was determined as 0.435.

With “ACAGACGAAGGAGCCGCAAAGAAGTTATTAAGGGATGTATAATCCCACAATATAAATATCTCTCACTTATTTAAA”, under setting [1], the “cleaved RNA product abundance” value came out at 0.308.

Turning to “CGACATGTCCCGCTTCTTTCATTAATCCGTTAGCAACTGTTTTGCTATATACAATTAACTTTTAAGAGGAGGAAT”, the “cleaved RNA product abundance” value under setting [3] turned out to be 2.58.

Turning to “ACAGACGAAGGAGCCGCAAAGAAGCTATTAAGGGATGAACAATCCCTCAATATAAATATCTCTCACTTATTTAAA”, under setting [1], the “cleaved RNA product abundance” value was found to be 0.568.

As for “ACAGACGAAGGAGCCGCAAAGAAGTTATATAGGGATGAATAATCCCTCAATATAAATATCTCTCACTTATTTAAA”, the “cleaved RNA product abundance” value under setting [1] stood at 0.664.

For the sequence “ACAGACGAAGGAGCCGCAAAGAAGTTATTAAGGGATCAATACTCCCTCAATATAAATATCTCTCACTTATTTAAA”, the “cleaved RNA product abundance” value under setting [1] worked out at 0.579.

Consider “ACAGACGAAGGAGCCGCAAAGAAGTTATTAAGGGATGAATAATCCCACCATATAAATATCTCTCACTTATTTAAA”, for which the “cleaved RNA product abundance” value under setting [2] was 0.16 and the “cleaved RNA product abundance” value under setting [1] was 0.228.

For “CGACATGTCCCGCTTCTTTCATTAATCCGTTAGCAAGTGTTATGCTATATACATTTACCTTTTAAGAGGAGGAAT”, the “cleaved RNA product abundance” value under setting [3] amounted to 0.19.

“ACAGACGAAGGAGCCGCAAAGAAGTTACTAAGGGATGAATAATCACTCAATATAAATATCTCTCACTTATTTAAA”: the “cleaved RNA product abundance” value under setting [1] came to 0.177.

Consider “CGACATGTCCCGCTTCTTTCATTATTGCGTTAGCAACTGTTTTGCTATATACATTTACCTTTTAAGAGGAGGAAT”, for which the “cleaved RNA product abundance” value under setting [3] came out at 1.54.

Consider “CGACATGTCCCGCTTCTTTCATTAATCCGTTAGCAACTGTTTTTTTATATACATTTACCTTTTAAGAGGAGGAAT”, for which, under setting [3], the “cleaved RNA product abundance” value turned out to be 0.718.

As for “CGACATGTCCCGCTTCTTTCATTAATCCGTTAGCAACTGTTTTGCTATATACATTTACGTTTTAAGAGGAGGAAT”, under setting [3], the “cleaved RNA product abundance” value is 1.12.

As for “ACAGACGAAGGAGCCGCAAAGAAGTTAATAAGGGATGAATAAACCCTCAATATAAATATCTCTCACTTATTTAAA”, the “cleaved RNA product abundance” value runs as follows: under setting [2], 0.167; under setting [1], 0.177.

With “ACAGACGAAGGAGCCGCAAAGAAGTTATTAAGGGATCAATAATCCCTCATTATAAATATCTCTCACTTATTTAAA”, the “cleaved RNA product abundance” value under setting [1] was 0.213.

For the sequence “ACAGACGAAGGAGCCGCAAAGAAGTTATTAAGGGAGCAATAATCCCTCAATATAAATATCTCTCACTTATTTAAA”, under setting [1], the “cleaved RNA product abundance” value was 0.631.

“CGACATGTCCCGCTTCTTTCATTAATCCGTTAGCAACTATTTTGTTATATACATTTACCTTTTAAGAGGAGGAAT”: the “cleaved RNA product abundance” value under setting [3] was 0.578.
